Laboratory results as given in publication PMC8608356.
pKd: −log10 of the molar value.

What was measured:
Assay in all cases: BLI
Conditions in all cases: biotinylated; BLI (BLItz): 20 mM Tris-HCl pH 7.4, 80 mM NaCl, 20 mM KCl, 1 mM DTT, room temperature; […] (Triton X-100, Tween-20)
[1] = system: CCHFV N protein stalk domain (Crimean Congo Hemorrhagic fever virus strain 10200?)
[2] = system: CCHFV nucleocapsid (N) protein, wild type (Crimean Congo Hemorrhagic fever virus strain 10200)
[3] = system: CCHFV nucleocapsid (N) protein, wild type (Crimean Congo Hemorrhagic fever virus strain 10200); remark: listed apart in the source
[4] = system: CCHFV N protein stalk domain (Crimean Congo Hemorrhagic fever virus strain 10200?); remark: listed apart in the source
[5] = system: CCHFV nucleocapsid (N) protein, wild type (Crimean Congo Hemorrhagic fever virus strain 10200); remark: listed apart in the source

Substance: CCHFV S-segment mRNA 5' UTR
- pKd [1]: 7.44
- pKd [2]: 7.43
- pKd [3]: 7.17
- pKd [4]: 7.27
- pKd [5]: 7.27
